Assay results reported in the supplement of paper PMC9170038.

Experiments:
MS2 coat protein [1] = assay: apparent KD of MS2 coat protein, switch OFF state (with FMN for OFF switches, without FMN for ON switches); designed switch direction (-1 OFF switch, 1 ON switch): 1; higher = weaker reporter binding; conditions: FMN input: 0 or 200 uM; Eterna round: R93 (includes R88 designs)
Outline: (§1)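 Apparent KD stands for the median, per design, of fits to normalised cluster binding curves. The curves came from titrating on-chip-transcribed RNA switches on Illumina sequencing clusters with SNAP-549-labelled MS2 coat protein, twofold from 0.7 or 1.5 nM to 3 µM. Buffer was 100 mM Tris-HCl pH 7.5, 80 mM KCl, 4 mM MgCl2, without or with constant ligand.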

MS2 coat protein [2] = assay: apparent KD of MS2 coat protein, switch ON state; designed switch direction (-1 OFF switch, 1 ON switch): 1; higher = weaker reporter binding; conditions: FMN input: 0 or 200 uM; Eterna round: R93 (includes R88 designs)
Outline: as §1

Sequence | apparent KD of MS2 coat protein (MS2 coat protein [1]) | apparent KD of MS2 coat protein (MS2 coat protein [2])
CAUAGACAUGAGGAUCACCCAUGUAGAAUUAUGGGAGGAUAUACAAAGACGAGAGUCAGAGUAGAAGGCCUAGGAU [salish99-ss1-162] | 0.0356 µM | 0.0241 µM
CAUCAUGCGCCUAAGGAUAUGUCCCACAAGACAUGAGGAUCACCCAUGUAGCCAAUUAAUACGGUGCAGAAGGUGGAGCGCAUGC [Qusotior] | 1.08 µM | 0.315 µM
CAUCAUGCGCCUAAGGAUAUGUCUCACAAGACAUGAGGAUCACCCAUGUAGAAUAAAUAAAUGAUGCAGAAGGUGGAGUGCAUGA [Inares] | 0.785 µM | 0.0506 µM
CAUCAUGCGCCUAAGGAUAUGUCUCACAAGACAUGAGGAUCACCCAUGUAGCCAAAAUAAACGAUGCAGAAGGUGGAGCACAUGC [Atrexe] | 0.602 µM | 0.271 µM
CAUCAUGCGUCUAAGGAUAUGUCUCACAAGACAUGAGGAUCACCCAUGUAGAAUAAAUAAAUGAUGCAGAAGGUGGAGCGCAUGC [Erzausis] | 0.283 µM | 0.0532 µM
CGAAAGGAGAGAGAGGAUAUCCAAAGGAAAACAUGAGGAUCACCCAUGUAGAAGGUAGGAGAUUGGGAGAAGGCUCAAGAGAGGC [salish99-ss2-150] | 0.0467 µM | 0.0185 µM
CGAAAGGAGAGAGAGGAUAUCCAAAGGAAAACAUGAGGAUCACCCAUGUAGAAGGUAGGAGAUUGGGAGAAGGCUCAAGCAAAAG [salish99-ss2-155] | 0.0264 µM | 0.029 µM
CGAUCACAUGAGGAUCACCCAUGUAUCGAUAAACGAGGAUAUGGGAGCGGGAUCUGUGGACCAGAAGGCGUACGGA [Celeus] | 0.0387 µM | 0.0234 µM
CGCCAAUUGGCACAGGAUAUGAGCAUGCUCACAUGAGGAUCACCCAUGUGAUUACCAACGCAAAAUCAGAAGGGUGCCCUCGUCA [Beanza] | 0.0926 µM | 0.069 µM
CGGAGACAUGAGGAUCACCCAUGUGAGAAGAGGCGAGGAUAUCGAAAGAAAGAAGAGAAACGAGAAGGCGCGAGUG [salish99-SS1-074] | 0.0329 µM | 0.0219 µM
CUAGUUGCAUACUAGGAUAUACACUGGGUGACAUGAGGAUCACCCAUGUAAAAGCACAUUCGGUAGUAGAAGGAGUGUGCAGGUC [Ceedesbi] | 0.0688 µM | 0.0926 µM
CUUAGGAAGAGAGAGGAUAUCCAAAGGAAAACAUGAGGAUCACCCAUGUAAAAGGUAGGAAAUUGGGAGAAGGCUCAAGAGAGAG [salish99-ss2-080] | 0.0318 µM | 0.026 µM
GAAAAACAUGAGGAUCACCCAUGUAAAAAUAUGGGAGGAUAUUCAAACACGAAAGUCAAAGAAGAAGGCCUAAAAG [Garnet 2] | 0.207 µM | 0.0304 µM
GAAAAACAUGAGGAUCACCCAUGUAGAAAUAUGGAAGGAUAUACAAAGACGAAACUGAAAGUAGAAGGUCUAAAAG [Garnet 95] | 0.0221 µM | 0.0232 µM
GAAAAACAUGAGGAUCACCCAUGUAGAAAUAUGGGAGGAUAUACAAAGACGAAAGUCAAAGUAGAAGGCCUCAAAG [JL S1 M-MoE mod 2 In the Red] | 0.0782 µM | 0.0849 µM
GAAAAACAUGAGGAUCACCCAUGUAGAAAUAUGGGAGGAUAUACAAAGUCGAAAGUCAAAGUAGAAGGCCUAAAAG [Garnet 26] | 0.17 µM | 0.0407 µM
GAAAAACAUGAGGAUCACCCAUGUAGAAAUAUGGGAGGAUAUACGAAGACGAAAGUCGAGGUAGAAGGCCUAAAAG [Garnet 54] | 0.098 µM | 0.0347 µM
